{"source": "paper PMC3237005", "origin": "cited, not measured here", "key": {"[1]": {"biological_target": "Lethal factor (LF) LFN (Bacillus anthracis) (UniProt P15917)"}, "[2]": {"biological_target": "Edema factor (EF) EFN (Bacillus anthracis) (UniProt P40136)"}}, "data": [{"substance": "Protective antigen (PA63 heptamer) PA63 (from UniProt P13423)", "values": [{"measurement": "Kd", "setting": "[1]", "result": 1, "unit": "nM"}, {"measurement": "Kd", "setting": "[2]", "result": 1, "unit": "nM"}]}]}
